{"source": "patent US20180087053", "about": "“ANTI-CANCER RNA APTAMERS” (CITY OF HOPE, published 2018)", "target": "mortalin (mitochondrial Hsp70, mHSP70) on PANC-1 cell surface (Homo sapiens, UniProt P38646 P38646:47-679)", "sequence (P38646 47-679, one chain of several)": "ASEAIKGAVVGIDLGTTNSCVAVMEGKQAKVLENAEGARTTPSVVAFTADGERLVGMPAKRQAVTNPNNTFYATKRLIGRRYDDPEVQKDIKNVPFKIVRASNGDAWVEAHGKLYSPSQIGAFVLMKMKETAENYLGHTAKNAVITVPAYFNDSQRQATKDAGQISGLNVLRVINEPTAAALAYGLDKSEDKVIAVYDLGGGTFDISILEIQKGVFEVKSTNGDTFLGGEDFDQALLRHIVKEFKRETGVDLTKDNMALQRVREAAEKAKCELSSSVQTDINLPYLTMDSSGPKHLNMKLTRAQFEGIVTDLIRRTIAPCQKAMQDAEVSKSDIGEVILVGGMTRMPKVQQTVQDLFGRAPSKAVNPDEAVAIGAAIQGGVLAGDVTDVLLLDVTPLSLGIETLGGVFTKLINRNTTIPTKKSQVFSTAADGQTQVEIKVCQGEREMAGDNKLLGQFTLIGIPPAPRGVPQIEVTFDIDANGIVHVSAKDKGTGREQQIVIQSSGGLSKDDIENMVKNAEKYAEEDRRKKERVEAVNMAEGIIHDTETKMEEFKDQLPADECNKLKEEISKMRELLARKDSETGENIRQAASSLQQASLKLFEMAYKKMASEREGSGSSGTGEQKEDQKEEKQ", "assay": "flow; intact PANC-1 cells, 37 C, 15.6-500 nM aptamer; target identified as mortalin by pulldown/MS", "conditions": "tags: endogenous, label: Cy3 (flow) or 3'-biotin (SPR, pulldown), multi-stem-loop (Mfold)", "protocol": "FIG. 1A-1G: Showing the secondary structure and pancreatic cancer specific internalization (FIG. 1A). Cartoon of the secondary structures of P19 (SEQ ID NO:2) and P1 (SEQ ID NO:4) are shown; aptamers were selected from randomized N40 RNA libraries and were predicted using the Mfold program. (FIG. 1B) Cy3-labeled RNAs were tested for binding to PANC-1 and NC as control cells by flow cytometry. Data represent the average of three replicated. Initial RNA library pool is shown as Library, P1 and P19. Cy3 labeled P19 and P1 incubation in. (FIG. 1C) Cy3-labeled RNAs (100 nM) was tested for internalization by confocal in negative cells, PANC-1 and MIA PaCa-2: Cy3-labeled RNA. (FIG. 1D) Cy3-labeled RNAs (100 nM) was tested for the internalization in primary pancreatic epithelial cells; Cy3-labeled RNA. (FIG. 1E) The representative images by histopathological screen in pancreatic cancer and normal pancreas. The samples were stained with Cy3 labeled aptamer P1 and P19 respectively and examined at 100× magnification. White arrow indicate that P19 binding to cancer region. Cy3-labeled RNA. (FIG. 1F) A total of 72 patients of pancreatic adenocarcinoma had undergone. The Correlation coefficient between P1 and P19 is 0.891. […] Median fluorescence intensity (MFI) was measured and calculated using one site binding non-linear curve regression with a Graph Pad Prism.", "data": [{"binder": "P19 (ssRNA, 2'-F pyrimidines) RNA: GGGAGACAAGAAUAAACGCUCAAUGGCGAAUGCCCGCCUAAUAGGGCGUUAUGACUUGUUGAGUUCGACAGGAGGCUCACAACAGGC", "values": [{"measurement": "Kd", "value": 13.1, "unit": "nM"}]}]}
